Our source for the Km and kcat values is paper PMC3764422, “A model of yeast glycolysis based on a consistent kinetic characterisation of all its enzymes” (Febs Letters, 2013).

Assay in all cases: purified protein
What all share (assay type): biochemical, Saccharomyces cerevisiae
Common to all, as to details: standardised reaction buffer, 30 °C

Substrate in data set [1]: CC(=O)C(=O)O
Substrate in data set [2]: O=C(O)[C@H](O)COP(=O)(O)O
Substrate in data set [3]: O=C[C@H](O)COP(=O)(O)O
Substrate in data set [4]: O=C(O)[C@@H](CO)OP(=O)(O)O
Substrate in data set [5]: Nc1ncnc2c1ncn2[C@@H]1O[C@H](COP(=O)(O)OP(=O)(O)OP(=O)(O)O)[C@@H](O)[C@H]1O
Where [6] appears, read: direction with ATP as co-substrate.

B1: Pdc1p (Saccharomyces cerevisiae S288C) (protein)
chain: SEITLGKYLFERLKQVNVNTVFGLPGDFNLSLLDKIYEVEGMRWAGNANELNAAYAADGYARIKGMSCIITTFGVGELSALNGIAGSYAEHVGVLHVVGVPSISAQAKQLLLHHTLGNGDFTVFHRMSANISETTAMITDIATAPAEIDRCIRTTYVTQRPVYLGLPANLVDLNVPAKLLQTPIDMSLKPNDAESEKEVIDTILALVKDAKNPVILADACCSRHDVKAETKKLIDLTQFPAFVTPMGKGSIDEQHPRYGGVYVGTLSKPEVKEAVESADLILSVGALLSDFNTGSFSYSYKTKNIVEFHSDHMKIRNATFPGVQMKFVLQKLLTTIADAAKGYKPVAVPARTPANAAVPASTPLKQEWMWNQLGNFLQEGDVVIAETGTSAFGINQTTFPNNTYGISQVLWGSIGFTTGATLGAAFAAEEIDPKKRVILFIGDGSLQLTVQEISTMIRWGLKPYLFVLNNDGYTIEKLIHGPKAQYNEIQGWDHLSLLPTFGAKDYETHRVATTGEWDKLTQDKSFNDNSKIRMIEIMLPVFDAPQNLVEQAKLTAATNAKQ
notes: tagged full-length ORF, expressed in and purified from S. cerevisiae, assayed freshly purified
Broadly, the kcat is the number of substrate molecules converted per active site and unit of time at saturation. Take B1: in the data set “purified protein [1]”, the Km was 8.5 (SEM 10%) mM and the kcat stood at 12.1 s⁻¹.

B2: Pgk1p (Saccharomyces cerevisiae S288C) (protein)
chain: SLSSKLSVQDLDLKDKRVFIRVDFNVPLDGKKITSNQRIVAALPTIKYVLEHHPRYVVLASHLGRPNGERNEKYSLAPVAKELQSLLGKDVTFLNDCVGPEVEAAVKASAPGSVILLENLRYHIEEEGSRKVDGQKVKASKEDVQKFRHELSSLADVYINDAFGTAHRAHSSMVGFDLPQRAAGFLLEKELKYFGKALENPTRPFLAILGGAKVADKIQLIDNLLDKVDSIIIGGGMAFTFKKVLENTEIGDSIFDKAGAEIVPKLMEKAKAKGVEVVLPVDFIIADAFSADANTKTVTDKEGIPAGWQGLDNGPESRKLFAATVAKAKTIVWNGPPGVFEFEKFAAGTKALLDEVVKSSAAGNTVIIGGGDTATVAKKYGVTDKISHVSTGGGASLELLEGKELPGVAFLSEKK
notes: tagged full-length ORF, expressed in and purified from S. cerevisiae
As for B2, in “purified protein [2]” (setting [6]), the Km came to 4580 µM and the kcat stood at 58.6 s⁻¹.

B3: Tdh3p (Saccharomyces cerevisiae S288C) (protein)
chain: VRVAINGFGRIGRLVMRIALSRPNVEVVALNDPFITNDYAAYMFKYDSTHGRYAGEVSHDDKHIIVDGKKIATYQERDPANLPWGSSNVDIAIDSTGVFKELDTAQKHIDAGAKKVVITAPSSTAPMFVMGVNEEKYTSDLKIVSNASCTTNCLAPLAKVINDAFGIEEGLMTTVHSLTATQKTVDGPSHKDWRGGRTASGNIIPSSTGAAKAVGKVLPELQGKLTGMAFRVPTVDVSVVDLTVKLNKETTYDEIKKVVKAAAEGKLKGVLGYTEDAVVSSDFLGDSHSSIFDASAGIQLSPKFVKLVSWYDNEYGYSTRVVDLVEHVAKA
notes: as for B2
As to B3, in the data set “purified protein [3]”, the Km was 0.423 (SEM 9.2%) mM and the kcat was 18.2 s⁻¹.

B4: Eno1p (Saccharomyces cerevisiae S288C) (protein)
chain: AVSKVYARSVYDSRGNPTVEVELTTEKGVFRSIVPSGASTGVHEALEMRDGDKSKWMGKGVLHAVKNVNDVIAPAFVKANIDVKDQKAVDDFLISLDGTANKSKLGANAILGVSLAASRAAAAEKNVPLYKHLADLSKSKTSPYVLPVPFLNVLNGGSHAGGALALQEFMIAPTGAKTFAEALRIGSEVYHNLKSLTKKRYGASAGNVGDEGGVAPNIQTAEEALDLIVDAIKAAGHDGKIKIGLDCASSEFFKDGKYDLDFKNPNSDKSKWLTGPQLADLYHSLMKRYPIVSIEDPFAEDDWEAWSHFFKTAGIQIVADDLTVTNPKRIATAIEKKAADALLLKVNQIGTLSESIKAAQDSFAAGWGVMVSHRSGETEDTFIADLVVGLRTGQIKTGAPARSERLAKLNQLLRIEEELGDNAVFAGENFHHGDKL
notes: tagged full-length ORF, expressed in and purified from S. cerevisiae, assayed immediately after purification
With B4, the kcat in “purified protein [2]” (product PEP) amounted to 5.07 s⁻¹. For the same protein, in “purified protein [4]”, the Km was 0.043 (SEM 10%) mM and the kcat was 7.6 s⁻¹.

B5: Tdh1p (Saccharomyces cerevisiae S288C) (protein)
chain: MIRIAINGFGRIGRLVLRLALQRKDIEVVAVNDPFISNDYAAYMVKYDSTHGRYKGTVSHDDKHIIIDGVKIATYQERDPANLPWGSLKIDVAVDSTGVFKELDTAQKHIDAGAKKVVITAPSSSAPMFVVGVNHTKYTPDKKIVSNASCTTNCLAPLAKVINDAFGIEEGLMTTVHSMTATQKTVDGPSHKDWRGGRTASGNIIPSSTGAAKAVGKVLPELQGKLTGMAFRVPTVDVSVVDLTVKLEKEATYDQIKKAVKAAAEGPMKGVLGYTEDAVVSSDFLGDTHASIFDASAGIQLSPKFVKLISWYDNEYGYSARVVDLIEYVAKA
notes: as for B2
Regarding B5, in the data set “purified protein [3]”, the Km is 0.495 (SEM 7.5%) mM and the kcat was 19.1 s⁻¹.

B6: Pdc5p (Saccharomyces cerevisiae S288C) (protein)
chain: MSEITLGKYLFERLSQVNCNTVFGLPGDFNLSLLDKLYEVKGMRWAGNANELNAAYAADGYARIKGMSCIITTFGVGELSALNGIAGSYAEHVGVLHVVGVPSISSQAKQLLLHHTLGNGDFTVFHRMSANISETTAMITDIANAPAEIDRCIRTTYTTQRPVYLGLPANLVDLNVPAKLLETPIDLSLKPNDAEAEAEVVRTVVELIKDAKNPVILADACASRHDVKAETKKLMDLTQFPVYVTPMGKGAIDEQHPRYGGVYVGTLSRPEVKKAVESADLILSIGALLSDFNTGSFSYSYKTKNIVEFHSDHIKIRNATFPGVQMKFALQKLLDAIPEVVKDYKPVAVPARVPITKSTPANTPMKQEWMWNHLGNFLREGDIVIAETGTSAFGINQTTFPTDVYAIVQVLWGSIGFTVGALLGATMAAEELDPKKRVILFIGDGSLQLTVQEISTMIRWGLKPYIFVLNNNGYTIEKLIHGPHAEYNEIQGWDHLALLPTFGARNYETHRVATTGEWEKLTQDKDFQDNSKIRMIEVMLPVFDAPQNLVKQAQLTAATNAKQ
notes: as for B1
For B6, in the data set “purified protein [1]”, the Km is 7.08 (SEM 5.7%) mM and the kcat is 10.3 s⁻¹.

B7: Eno2p (Saccharomyces cerevisiae S288C) (protein)
chain: MAVSKVYARSVYDSRGNPTVEVELTTEKGVFRSIVPSGASTGVHEALEMRDEDKSKWMGKGVMNAVNNVNNVIAAAFVKANLDVKDQKAVDDFLLSLDGTANKSKLGANAILGVSMAAARAAAAEKNVPLYQHLADLSKSKTSPYVLPVPFLNVLNGGSHAGGALALQEFMIAPTGAKTFAEAMRIGSEVYHNLKSLTKKRYGASAGNVGDEGGVAPNIQTAEEALDLIVDAIKAAGHDGKVKIGLDCASSEFFKDGKYDLDFKNPESDKSKWLTGVELADMYHSLMKRYPIVSIEDPFAEDDWEAWSHFFKTAGIQIVADDLTVTNPARIATAIEKKAADALLLKVNQIGTLSESIKAAQDSFAANWGVMVSHRSGETEDTFIADLVVGLRTGQIKTGAPARSERLAKLNQLLRIEEELGDKAVYAGENFHHGDKL
notes: N-terminally tagged full-length ORF, expressed in and purified from S. cerevisiae, assayed fresh
Turning to B7, in “purified protein [4]”, the Km is 0.104 mM and the kcat was determined as 19.9 s⁻¹.

B8: Gpm1p (Saccharomyces cerevisiae S288C) (protein)
chain: PKLVLVRHGQSEWNEKNLFTGWVDVKLSAKGQQEAARAGELLKEKKVYPDVLYTSKLSRAIQTANIALEKADRLWIPVNRSWRLNERHYGDLQGKDKAETLKKFGEEKFNTYRRSFDVPPPPIDASSPFSQKGDERYKYVDPNVLPETESLALVIDRLLPYWQDVIAKDLLSGKTVMIAAHGNSLRGLVKHLEGISDADIAKLNIPTGIPLVFELDENLKPSKPSYYLDPEAAAAGAAAVANQGKK
notes: as for B2
For the protein B8, in the data set “purified protein [4]” (reverse reaction (P2G to P3G)), the Km was found to be 1.41 mM and the catalytic constant (kcat) stood at 400 s⁻¹.

B9: Pdc6p (Saccharomyces cerevisiae S288C) (protein)
chain: SEITLGKYLFERLKQVNVNTIFGLPGDFNLSLLDKIYEVDGLRWAGNANELNAAYAADGYARIKGLSVLVTTFGVGELSALNGIAGSYAEHVGVLHVVGVPSISAQAKQLLLHHTLGNGDFTVFHRMSANISETTSMITDIATAPSEIDRLIRTTFITQRPSYLGLPANLVDLKVPGSLLEKPIDLSLKPNDPEAEKEVIDTVLELIQNSKNPVILSDACASRHNVKKETQKLIDLTQFPAFVTPLGKGSIDEQHPRYGGVYVGTLSKQDVKQAVESADLILSVGALLSDFNTGSFSYSYKTKNVVEFHSDYVKVKNATFLGVQMKFALQNLLKVIPDVVKGYKSVPVPTKTPANKGVPASTPLKQEWLWNELSKFLQEGDVIISETGTSAFGINQTIFPKDAYGISQVLWGSIGFTTGATLGAAFAAEEIDPNKRVILFIGDGSLQLTVQEISTMIRWGLKPYLFVLNNDGYTIEKLIHGPHAEYNEIQTWDHLALLPAFGAKKYENHKIATTGEWDALTTDSEFQKNSVIRLIELKLPVFDAPESLIKQAQLTAATNAKQ
notes: as for B1
Regarding B9, in the data set “purified protein [1]”, the Km came to 2.92 mM and the kcat came to 9.21 s⁻¹.

B10: Glk1p (Saccharomyces cerevisiae S288C) (protein)
chain: SFDDLHKATERAVIQAVDQICDDFEVTPEKLDELTAYFIEQMEKGLAPPKEGHTLASDKGLPMIPAFVTGSPNGTERGVLLAADLGGTNFRICSVNLHGDHTFSMEQMKSKIPDDLLDDENVTSDDLFGFLARRTLAFMKKYHPDELAKGKDAKPMKLGFTFSYPVDQTSLNSGTLIRWTKGFRIADTVGKDVVQLYQEQLSAQGMPMIKVVALTNDTVGTYLSHCYTSDNTDSMTSGEISEPVIGCIFGTGTNGCYMEEINKITKLPQELRDKLIKEGKTHMIINVEWGSFDNELKHLPTTKYDVVIDQKLSTNPGFHLFEKRVSGMFLGEVLRNILVDLHSQGLLLQQYRSKEQLPRHLTTPFQLSSEVLSHIEIDDSTGLRETELSLLQSLRLPTTPTERVQIQKLVRAISRRSAYLAAVPLAAILIKTNALNKRYHGEVEIGCDGSVVEYYPGFRSMLRHALALSPLGAEGERKVHLKIAKDGSGVGAALCALVA
notes: tagged full-length ORF (mostly C-terminal tag, yeast ORF/GST/TAP collections), expressed in and purified from S. cerevisiae
Take B10: in “purified protein [5]”, the Km stood at 865 µM and the kcat was 0.0721 s⁻¹.

B11: Tdh2p (Saccharomyces cerevisiae S288C) (protein)
chain: VRVAINGFGRIGRLVMRIALQRKNVEVVALNDPFISNDYSAYMFKYDSTHGRYAGEVSHDDKHIIVDGHKIATFQERDPANLPWASLNIDIAIDSTGVFKELDTAQKHIDAGAKKVVITAPSSTAPMFVMGVNEEKYTSDLKIVSNASCTTNCLAPLAKVINDAFGIEEGLMTTVHSMTATQKTVDGPSHKDWRGGRTASGNIIPSSTGAAKAVGKVLPELQGKLTGMAFRVPTVDVSVVDLTVKLNKETTYDEIKKVVKAAAEGKLKGVLGYTEDAVVSSDFLGDSNSSIFDAAAGIQLSPKFVKLVSWYDNEYGYSTRVVDLVEHVAKA
notes: as for B2
As to B11, in the data set “purified protein [3]”, the Km was 0.77 mM and the kcat turned out to be 8.63 s⁻¹.
